# B1: Hairpin Ribozyme (parent)
# chain: GUCCUCUUUCACGUGCGCGUGAAAGAGAGAAGUGAACCAGAGAAACACACGUUGUGGUAUAUUACCUGGUA
# Variants of: B1
# Assay: self-cleavage, relative activity (ratio to wild type); higher = more cleavage; co-transcriptional
row,Variant,self-cleavage
1,GUCCUCUUUCACGUGCGCGUGAAAGAGAGAAGUGAACCAGAUAAACAAACGUUGUGGUAUAUUACCUGGUA [G42U C48A],0.215
2,GUCCUCUUUCACGUGCGCGUGAAAGAGAGAAGUGAACCAGAUAAACACACGUUGUGGUAUAUUACCUGGUG [G42U A71G],0.393
3,GUCCUCUUUCACGUGCGCGUGAAAGAGAGAAGUGAACCAGAUAAACACACGUUGUGGUAUAUUACCUGGUU [G42U A71U],0.217
4,GUCCUCUUUCACGUGCGCGUGAAAGAGAGAAGUGAACCAGAUAAACACACGUUGUUGUAUAUUACCUGGUA [G42U G56U],0.169
5,GUCCUCUUUCACGUGCGCGUGAAAGAGAGAAGUGAACCAGAUAAACACACGUUGUCGUAUAUUACCUGGUA [G42U G56C],0.147
6,GUCCUCUUUCACGUGCGCGUGAAAGAGAGAAGUGAACCAGAUAAACACACAUUGUGGUAUAUUACCUGGUA [G42U G51A],0.191
7,GUCCUCUUUCACGUGCGCGUGAAAGAGAGAAGUGAACCAGAUAAACACACUUUGUGGUAUAUUACCUGGUA [G42U G51U],0.345
8,GUCCUCUUUCACGUGCGCGUGAAAGAGAGAAGUGAACCAGAUAAAUACACGUUGUGGUAUAUUACCUGGUA [G42U C46U],0.205
9,GUCCUCUUUCACGUGCGCGUGAAAGAGAGAAGUGAACCAGAUAAACACACGUUGUGGUAUAUGACCUGGUA [G42U U63G],0.168
10,GUCCUCUUUCACGUGCGCGUGAAAGAGAGAAGUGAACCAGAUAAACACACGUUGUGGAAUAUUACCUGGUA [G42U U58A],0.0966
11,GUCCUCUUUCACGUGCGCGUGAAAGAGAGAAGUGAACCAGAUUAACACACGUUGUGGUAUAUUACCUGGUA [G42U A43U],0.108
12,GUCCUCUUUCACGUGCGCGUGAAAGAGAGAAGUGAACCAGAUAAACACACGUUGUGGUAUAUUACAUGGUA [G42U C66A],0.162
13,GUCCUCUUUCACGUGCGCGUGAAAGAGAGAAGUGAACCAGAGCAACACUCGUUGUGGUAUAUUACCUGGUA [A43C A49U],0.142
14,GUCCUCUUUCACGUGCGCGUGAAAGAGAGAAGUGAACCAGAGCACCACACGUUGUGGUAUAUUACCUGGUA [A43C A45C],0.153
15,GUCCUCUUUCACGUGCGCGUGAAAGAGAGAAGUGAACCAGAUAAACACACGUUGUGGUAUAUUACCAGGUA [G42U U67A],0.151
16,GUCCUCUUUCACGUGCGCGUGAAAGAGAGAAGUGAACCAGAGCAACCCACGUUGUGGUAUAUUACCUGGUA [A43C A47C],0.0231
17,GUCCUCUUUCACGUGCGCGUGAAAGAGAGAAGUGAACCAGAGCAACUCACGUUGUGGUAUAUUACCUGGUA [A43C A47U],0.24
18,GUCCUCUUUCACGUGCGCGUGAAAGAGAGAAGUGAACCAGAUAAACACACGUUUUGGUAUAUUACCUGGUA [G42U G54U],0.191
19,GUCCUCUUUCACGUGCGCGUGAAAGAGAGAAGUGAACCAGAUAAACACACGUUAUGGUAUAUUACCUGGUA [G42U G54A],0.197

row,Variant,self-cleavage
1,GUCCUCUUUCACGUGCGCGUGAAAGAGAGAAGUGAACCAGAUAAACACACGUUCUGGUAUAUUACCUGGUA [G42U G54C],0.122
2,GUCCUCUUUCACGUGCGCGUGAAAGAGAGAAGUGAACCAGAUAAACACACGUUGUGGUAUAUUACCUGGAA [G42U U70A],0.233
3,GUCCUCUUUCACGUGCGCGUGAAAGAGAGAAGUGAACCAGAUAAACACACGUUGUGGUAUAUUACCUGGCA [G42U U70C],0.162
4,GUCCUCUUUCACGUGCGCGUGAAAGAGAGAAGUGAACCAGAUAAACACACGUUGAGGUAUAUUACCUGGUA [G42U U55A],0.069
5,GUCCUCUUUCACGUGCGCGUGAAAGAGAGAAGUGAACCAGAUAAACACACGUUGUGAUAUAUUACCUGGUA [G42U G57A],0.187
6,GUCCUCUUUCACGUGCGCGUGAAAGAGAGAAGUGAACCAGAUAAACACACGUUGUGUUAUAUUACCUGGUA [G42U G57U],0.187
7,GUCCUCUUUCACGUGCGCGUGAAAGAGAGAAGUGAACCAGAUAAACACACGUUGUGCUAUAUUACCUGGUA [G42U G57C],0.0657
8,GUCCUCUUUCACGUGCGCGUGAAAGAGAGAAGUGAACCAGAGCGACACACGUUGUGGUAUAUUACCUGGUA [A43C A44G],0.0582
9,GUCCUCUUUCACGUGCGCGUGAAAGAGAGAAGUGAACCAGAUAAACACAGGUUGUGGUAUAUUACCUGGUA [G42U C50G],0.26
10,GUCCUCUUUCACGUGCGCGUGAAAGAGAGAAGUGAACCAGAUAAACACAAGUUGUGGUAUAUUACCUGGUA [G42U C50A],0.189
11,GUCCUCUUUCACGUGCGCGUGAAAGAGAGAAGUGAACCAGAUAAACACACGUUGUGGUAUAUUACCUCGUA [G42U G68C],0.152
12,GUCCUCUUUCACGUGCGCGUGAAAGAGAGAAGUGAACCAGAUAAACACACGUUGUGGUAUAUUACCUAGUA [G42U G68A],0.129
13,GUCCUCUUUCACGUGCGCGUGAAAGAGAGAAGUGAACCAGAUAAACACACGUUGUGGUAUUUUACCUGGUA [G42U A61U],0.283
14,GUCCUCUUUCACGUGCGCGUGAAAGAGAGAAGUGAACCAGAUAAACACACGUUGUGGUAUAUUAGCUGGUA [G42U C65G],0.209
15,GUCCUCUUUCACGUGCGCGUGAAAGAGAGAAGUGAACCAGAGCAACACACGUUGUGGUUUAUUACCUGGUA [A43C A59U],0.101
16,GUCCUCUUUCACGUGCGCGUGAAAGAGAGAAGUGAACCAGAUAAGCACACGUUGUGGUAUAUUACCUGGUA [G42U A45G],0.131
17,GUCCUCUUUCACGUGCGCGUGAAAGAGAGAAGUGAACCAGAUAACCACACGUUGUGGUAUAUUACCUGGUA [G42U A45C],0.227
18,GUCCUCUUUCACGUGCGCGUGAAAGAGAGAAGUGAACCAGAUAAUCACACGUUGUGGUAUAUUACCUGGUA [G42U A45U],0.112
19,GUCCUCUUUCACGUGCGCGUGAAAGAGAGAAGUGAACCAGAUAAACACGCGUUGUGGUAUAUUACCUGGUA [G42U A49G],0.134

# Source: the RNAGym collection of RNA variant scans (doi:10.7554/elife.80360)
